Assay results taken from patent publication US20150344570A1 (published 2015).

The binders below were run against T1, FcγRIa (human, UniProt P12314 16-292) (assay: SPR (Biacore), antibody captured on antigen-peptide chip, FcγRIa as analyte; binding activity relative to control GpH7-A5/GpH7-B3/GpL16-k0 (HeCon Ab) x100).
T1 construct: extracellular domain; Soluble extracellular domain with C-terminal His tag, expressed in FreeStyle293 cells; analyte in Biacore; also called FcgRI; CD64; not shown: His tag attached to the C terminus
T1 sequence (P12314 16-292): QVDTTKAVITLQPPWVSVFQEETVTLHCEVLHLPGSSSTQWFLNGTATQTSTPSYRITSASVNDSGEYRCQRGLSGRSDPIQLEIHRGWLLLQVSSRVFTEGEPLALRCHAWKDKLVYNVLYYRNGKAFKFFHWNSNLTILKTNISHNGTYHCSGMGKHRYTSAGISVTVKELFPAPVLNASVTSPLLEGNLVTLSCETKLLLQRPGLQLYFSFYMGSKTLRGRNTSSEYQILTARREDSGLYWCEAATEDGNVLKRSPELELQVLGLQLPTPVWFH
Protocol: Analysis of interaction between objective antibody and the FcγR was carried out using Biacore T100 (GE Healthcare). HBS-EP+ (GE Healthcare) was used as the running buffer, and the measurement temperature was set to 25° C. Chips produced by immobilizing the antigen peptide by the amine coupling method to a Series S Sencor Chip CM5 (GE Healthcare), or alternatively, chips produced by allowing preliminarily biotinylated antigen peptides to interact with and immobilize onto a Series S Sensor Chip SA (certified) (GE Healthcare) were used. Antibodies of interest were captured onto an antigen peptide-immobilized chip, and allowed to interact to each FcγR diluted with running buffer. To regenerate and repeatedly use the chip, the antibodies captured on the chip were washed off by reacting 10 mM glycine-HCl, pH 1.5.

Binder	He/Con_1a
GpH7-A5/GpH7-B3 variant Y296_10E/GpL16-k0 (heterodimerized antibody, He Ab) (antibody, human IgG1, kappa, Anti-glypican-3 IgG1; alteration only in the GpH7-B3 (K439E) chain; other H chain is GpH7-A5 (D356K/H435R)) heavy 1: not shown heavy 2: not shown light: DIVMTQSPLSLPVTPGEPASISCQASESLVHSNRNTYLHWYLQKPGQSPQLLIYKVSNRFSGVPDRFSGSGSGTDFTLKISRVEAEDVGVYYCSQNTHVPPTFGQGTKVEIERTVAAPSVFIFPPSDEQLKSGTASVVCLLNNFYPREAKVQWKVDNALQSGNSQESVTEQDSKDSTYSLSSTLTLSKADYEKHKVYACEVTHQGLSSPVTKSFNRGEC	106 % of control (=100)
GpH7-A5/GpH7-B3 variant Y300_03V/GpL16-k0 (heterodimerized antibody, He Ab) (antibody, human IgG1, kappa, Anti-glypican-3 IgG1; alteration only in the GpH7-B3 (K439E) chain; other H chain is GpH7-A5 (D356K/H435R)) heavy 1: not shown heavy 2: not shown light: DIVMTQSPLSLPVTPGEPASISCQASESLVHSNRNTYLHWYLQKPGQSPQLLIYKVSNRFSGVPDRFSGSGSGTDFTLKISRVEAEDVGVYYCSQNTHVPPTFGQGTKVEIERTVAAPSVFIFPPSDEQLKSGTASVVCLLNNFYPREAKVQWKVDNALQSGNSQESVTEQDSKDSTYSLSSTLTLSKADYEKHKVYACEVTHQGLSSPVTKSFNRGEC	117 % of control (=100)
GpH7-A5/GpH7-B3 variant Y296_19Q/GpL16-k0 (heterodimerized antibody, He Ab) (antibody, human IgG1, kappa, Anti-glypican-3 IgG1; alteration only in the GpH7-B3 (K439E) chain; other H chain is GpH7-A5 (D356K/H435R)) heavy 1: not shown heavy 2: not shown light: DIVMTQSPLSLPVTPGEPASISCQASESLVHSNRNTYLHWYLQKPGQSPQLLIYKVSNRFSGVPDRFSGSGSGTDFTLKISRVEAEDVGVYYCSQNTHVPPTFGQGTKVEIERTVAAPSVFIFPPSDEQLKSGTASVVCLLNNFYPREAKVQWKVDNALQSGNSQESVTEQDSKDSTYSLSSTLTLSKADYEKHKVYACEVTHQGLSSPVTKSFNRGEC	112 % of control (=100)
GpH7-A5/GpH7-B3 variant Y296_11K/GpL16-k0 (heterodimerized antibody, He Ab) (antibody, human IgG1, kappa, Anti-glypican-3 IgG1; alteration only in the GpH7-B3 (K439E) chain; other H chain is GpH7-A5 (D356K/H435R)) heavy 1: not shown heavy 2: not shown light: DIVMTQSPLSLPVTPGEPASISCQASESLVHSNRNTYLHWYLQKPGQSPQLLIYKVSNRFSGVPDRFSGSGSGTDFTLKISRVEAEDVGVYYCSQNTHVPPTFGQGTKVEIERTVAAPSVFIFPPSDEQLKSGTASVVCLLNNFYPREAKVQWKVDNALQSGNSQESVTEQDSKDSTYSLSSTLTLSKADYEKHKVYACEVTHQGLSSPVTKSFNRGEC	105 % of control (=100)
GpH7-A5/GpH7-B3 variant Y296_14T/GpL16-k0 (heterodimerized antibody, He Ab) (antibody, human IgG1, kappa, Anti-glypican-3 IgG1; alteration only in the GpH7-B3 (K439E) chain; other H chain is GpH7-A5 (D356K/H435R)) heavy 1: not shown heavy 2: not shown light: DIVMTQSPLSLPVTPGEPASISCQASESLVHSNRNTYLHWYLQKPGQSPQLLIYKVSNRFSGVPDRFSGSGSGTDFTLKISRVEAEDVGVYYCSQNTHVPPTFGQGTKVEIERTVAAPSVFIFPPSDEQLKSGTASVVCLLNNFYPREAKVQWKVDNALQSGNSQESVTEQDSKDSTYSLSSTLTLSKADYEKHKVYACEVTHQGLSSPVTKSFNRGEC	105 % of control (=100)
GpH7-A5/GpH7-B3 variant Y296_18N/GpL16-k0 (heterodimerized antibody, He Ab) (antibody, human IgG1, kappa, Anti-glypican-3 IgG1; alteration only in the GpH7-B3 (K439E) chain; other H chain is GpH7-A5 (D356K/H435R)) heavy 1: not shown heavy 2: not shown light: DIVMTQSPLSLPVTPGEPASISCQASESLVHSNRNTYLHWYLQKPGQSPQLLIYKVSNRFSGVPDRFSGSGSGTDFTLKISRVEAEDVGVYYCSQNTHVPPTFGQGTKVEIERTVAAPSVFIFPPSDEQLKSGTASVVCLLNNFYPREAKVQWKVDNALQSGNSQESVTEQDSKDSTYSLSSTLTLSKADYEKHKVYACEVTHQGLSSPVTKSFNRGEC	106 % of control (=100)
GpH7-A5/GpH7-B3 variant Y296_16H/GpL16-k0 (heterodimerized antibody, He Ab) (antibody, human IgG1, kappa, Anti-glypican-3 IgG1; alteration only in the GpH7-B3 (K439E) chain; other H chain is GpH7-A5 (D356K/H435R)) heavy 1: not shown heavy 2: not shown light: DIVMTQSPLSLPVTPGEPASISCQASESLVHSNRNTYLHWYLQKPGQSPQLLIYKVSNRFSGVPDRFSGSGSGTDFTLKISRVEAEDVGVYYCSQNTHVPPTFGQGTKVEIERTVAAPSVFIFPPSDEQLKSGTASVVCLLNNFYPREAKVQWKVDNALQSGNSQESVTEQDSKDSTYSLSSTLTLSKADYEKHKVYACEVTHQGLSSPVTKSFNRGEC	106 % of control (=100)

Next, values leading:

He/Con_1a	Binder
113 % of control (=100)	GpH7-A5/GpH7-B3 variant Y300_08L/GpL16-k0 (heterodimerized antibody, He Ab) (antibody, human IgG1, kappa, Anti-glypican-3 IgG1; alteration only in the GpH7-B3 (K439E) chain; other H chain is GpH7-A5 (D356K/H435R)) heavy 1: not shown heavy 2: not shown light: DIVMTQSPLSLPVTPGEPASISCQASESLVHSNRNTYLHWYLQKPGQSPQLLIYKVSNRFSGVPDRFSGSGSGTDFTLKISRVEAEDVGVYYCSQNTHVPPTFGQGTKVEIERTVAAPSVFIFPPSDEQLKSGTASVVCLLNNFYPREAKVQWKVDNALQSGNSQESVTEQDSKDSTYSLSSTLTLSKADYEKHKVYACEVTHQGLSSPVTKSFNRGEC
112 % of control (=100)	GpH7-A5/GpH7-B3 variant Y300_19Q/GpL16-k0 (heterodimerized antibody, He Ab) (antibody, human IgG1, kappa, Anti-glypican-3 IgG1; alteration only in the GpH7-B3 (K439E) chain; other H chain is GpH7-A5 (D356K/H435R)) heavy 1: not shown heavy 2: not shown light: DIVMTQSPLSLPVTPGEPASISCQASESLVHSNRNTYLHWYLQKPGQSPQLLIYKVSNRFSGVPDRFSGSGSGTDFTLKISRVEAEDVGVYYCSQNTHVPPTFGQGTKVEIERTVAAPSVFIFPPSDEQLKSGTASVVCLLNNFYPREAKVQWKVDNALQSGNSQESVTEQDSKDSTYSLSSTLTLSKADYEKHKVYACEVTHQGLSSPVTKSFNRGEC
112 % of control (=100)	GpH7-A5/GpH7-B3 variant Y300_14T/GpL16-k0 (heterodimerized antibody, He Ab) (antibody, human IgG1, kappa, Anti-glypican-3 IgG1; alteration only in the GpH7-B3 (K439E) chain; other H chain is GpH7-A5 (D356K/H435R)) heavy 1: not shown heavy 2: not shown light: DIVMTQSPLSLPVTPGEPASISCQASESLVHSNRNTYLHWYLQKPGQSPQLLIYKVSNRFSGVPDRFSGSGSGTDFTLKISRVEAEDVGVYYCSQNTHVPPTFGQGTKVEIERTVAAPSVFIFPPSDEQLKSGTASVVCLLNNFYPREAKVQWKVDNALQSGNSQESVTEQDSKDSTYSLSSTLTLSKADYEKHKVYACEVTHQGLSSPVTKSFNRGEC
112 % of control (=100)	GpH7-A5/GpH7-B3 variant Y300_06M/GpL16-k0 (heterodimerized antibody, He Ab) (antibody, human IgG1, kappa, Anti-glypican-3 IgG1; alteration only in the GpH7-B3 (K439E) chain; other H chain is GpH7-A5 (D356K/H435R)) heavy 1: not shown heavy 2: not shown light: DIVMTQSPLSLPVTPGEPASISCQASESLVHSNRNTYLHWYLQKPGQSPQLLIYKVSNRFSGVPDRFSGSGSGTDFTLKISRVEAEDVGVYYCSQNTHVPPTFGQGTKVEIERTVAAPSVFIFPPSDEQLKSGTASVVCLLNNFYPREAKVQWKVDNALQSGNSQESVTEQDSKDSTYSLSSTLTLSKADYEKHKVYACEVTHQGLSSPVTKSFNRGEC
